Results reported in US20090298167A1 (Pfizer, published 2009).
Positions count from the first letter of the chain named. In names and notes the source's numbering stands. Values belong to the binder of their own block, whether it stands above or below them.

Legend:
[1] = molecular target: T1, human IL-21R expressed on cells (human, UniProt Q9HBE5 20-538); assay: cell-based or functional assay
[2] = molecular target: T2, murine IL-21R expressed on cells (murine, UniProt Q9JHX3 20-529); assay: cell-based or functional assay
T2 sequence (Q9JHX3 20-529 limits assumed): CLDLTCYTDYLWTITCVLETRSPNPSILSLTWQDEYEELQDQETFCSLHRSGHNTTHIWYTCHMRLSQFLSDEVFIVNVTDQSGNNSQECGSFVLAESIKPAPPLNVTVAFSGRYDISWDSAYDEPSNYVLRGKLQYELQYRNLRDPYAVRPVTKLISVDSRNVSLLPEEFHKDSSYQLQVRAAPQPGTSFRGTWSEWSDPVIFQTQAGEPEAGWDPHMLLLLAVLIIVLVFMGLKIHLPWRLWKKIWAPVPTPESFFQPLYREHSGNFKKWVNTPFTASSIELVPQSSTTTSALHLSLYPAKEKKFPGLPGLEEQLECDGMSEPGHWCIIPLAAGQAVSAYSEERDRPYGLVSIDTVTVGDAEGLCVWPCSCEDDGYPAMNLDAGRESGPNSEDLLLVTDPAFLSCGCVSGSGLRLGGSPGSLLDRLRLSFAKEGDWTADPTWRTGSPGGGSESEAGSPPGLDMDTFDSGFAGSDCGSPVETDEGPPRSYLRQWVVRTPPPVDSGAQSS

[3] = molecular target: T3, rat IL-21R expressed on cells (rat); assay: cell ELISA: CHO cells transiently expressing the receptor, antibody in conditioned medium, HRP anti-human IgG, A450
T3 construct: whole, on cells; Transiently transfected CHO-PA-Dukx cells
Experimental: (§1) A subset of binding proteins was tested for binding to rat, cynomolgus monkey, human IL-21R, or human IL-2R-γ common subunit expressed transiently on the surfaces of CHO-PA-Dukx cells. Cells were transfected 48 hr prior to the assay. On the day of the assay, cells were washed gently 5× in PBS containing 0.9 mM CaCl₂ and 0.45 mM MgCl₂ (PBS/CaMg) on an automated plate washer (Titertek, Huntsville, Ala.), and blocked for 1 hr at RT in PBS/CaMg/5% nonfat dry milk. Conditioned media from transiently expressed anti-IL-21R IgGs were serially diluted in blocking buffer and added to the cells in the blocked plates for 1 hr at RT. Cells were washed 5× with PBS/CaMg and then incubated with horseradish peroxidase-conjugated anti-human IgG for 1 hr at RT. Cells were then washed 10× in PBS/CaMg and all of the wash buffer was removed. Cells were incubated with 100 μl TMB until the color reaction reached saturation, stopped with 100 μl of 0.18 M H₂SO₄, and read at A450 on a Perkin Elmer ENVISION™ plate reader.

[4] = molecular target: T4, human gamma common chain expressed on CHO cells (human, UniProt P31785 23-369); assay: cell ELISA on transfected CHO cells, 13 nM IgG
T4 construct: whole, on cells; Control protein; also called human IL-2R-γ common subunit; human gamma (γ) common chain
T4 sequence (looked up): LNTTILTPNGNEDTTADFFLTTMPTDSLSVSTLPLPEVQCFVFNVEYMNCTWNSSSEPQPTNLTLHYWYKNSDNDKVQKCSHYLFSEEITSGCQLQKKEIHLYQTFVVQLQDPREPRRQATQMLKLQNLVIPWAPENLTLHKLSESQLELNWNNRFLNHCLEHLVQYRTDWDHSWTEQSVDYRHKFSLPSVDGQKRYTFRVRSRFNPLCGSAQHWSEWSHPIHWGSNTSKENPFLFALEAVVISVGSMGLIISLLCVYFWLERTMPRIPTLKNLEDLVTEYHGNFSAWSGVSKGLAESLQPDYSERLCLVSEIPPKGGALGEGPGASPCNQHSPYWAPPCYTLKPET

[5] = molecular target: T1, human IL-21R expressed on cells; assay: cell ELISA on transfected CHO cells, 13 nM IgG
[6] = molecular target: T3, rat IL-21R expressed on cells; assay: cell ELISA on transfected CHO cells, 13 nM IgG
[7] = molecular target: T5, cynomolgus monkey IL-21R expressed on CHO cells (cynomolgus monkey); assay: cell ELISA on transfected CHO cells, 13 nM IgG
T5 construct: whole, on cells

[8] = molecular target: T2, murine IL-21R expressed on cells; assay: cell-based or functional assay; remark: listed apart in the source
[9] = molecular target: T1, human IL-21R expressed on cells; assay: cell-based or functional assay; remark: listed apart in the source
[10] = molecular target: T3, rat IL-21R expressed on cells; assay: cell-based or functional assay
[11] = molecular target: T1, human IL-21R expressed on cells; assay: cell-based or functional assay; remark: listed apart in the source
[12] = molecular target: T5, cynomolgus monkey IL-21R expressed on …; assay: cell ELISA: CHO cells transiently expressing the receptor, antibody in conditioned medium, HRP anti-human IgG, A450
Experimental: FIG. 6 depicts the binding of 21 anti-IL-21R IgGs to CHO cells transiently expressing human IL-21R (FIGS. 6a-c), rat IL-21R (FIGS. 6d-f), cynomolgus monkey IL-21R (FIGS. 6g-i), and human gamma common chain (FIGS. 6j-l). CHO cells were transiently transfected with IL-21R or the control gamma common chain, and binding was detected with HRP-conjugated anti-human IgG in a cell-based ELISA.
as §1

[13] = molecular target: T6, human IL-13-His/FLAG (human, UniProt P35225 35-146, limits assumed); assay: BIACORE: antibody captured on anti-human IgG, 50 nM analyte injected
T6 construct: Unrelated His/FLAG-tagged control; also called human IL-13-H/F
T6 sequence (P35225 35-146 limits assumed): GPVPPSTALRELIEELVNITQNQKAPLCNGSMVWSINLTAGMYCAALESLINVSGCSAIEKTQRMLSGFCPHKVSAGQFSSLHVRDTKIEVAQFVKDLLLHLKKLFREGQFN
Experimental: (§2) The specificity of binding of a subset of transiently expressed anti-IL-21R binding proteins (here antibodies) was tested on a BIACORE™ 2000 surface plasmon resonance instrument. Anti-human-IgG, anti-murine immunoglobulin antibodies, and murine IL-21R-H/F were immobilized onto a research-grade carboxymethyl-dextran chip (CM5) using standard amine coupling. The sensor chip surface was activated with EDC/NHS for 7 min at a flow rate of 20 μl/min. The first flow cell was used as reference surface to correct for bulk refractive index, matrix effects, and nonspecific binding. […] Remaining activated groups were blocked with 1.0 M ethanolamine (pH 8.0). The molecular weights of the anti-human IgG and the anti-murine IgG were both 150 kD, and the molecular weight of the IL-21R monomer was 27 kD.
(§3) Conditioned media containing anti-IL-21R antibodies and antibody controls (murine anti-human IL-2Rβ and murine anti-human IL-4R(R&D Systems, Minneapolis, Minn.); human anti-human IL-13 (Wyeth, Cambridge, Mass.)) were diluted in HBS/EP buffer supplemented with 0.2% bovine serum and injected onto all four flow cells of the BIACORE™ chip, capturing 500-700 (RU) of antibody on the species-appropriate capture antibody. Following a 5 sec washing period, 50 nM solutions of a positive control protein (murine IL-21R-H/F), two human proteins related to IL-21R (human IL-2Rβ and human sIL-4R(R&D Systems)), or an unrelated His/FLAG-tagged protein (human IL-13-H/F), were injected over the captured antibodies on the chip. The association and dissociation phases were monitored for 120 and 180 sec, respectively, followed by two 5 μl injections of glycine (pH 1.5) to regenerate a fully active capturing surface. All binding experiments were done at 25° C. in HBS/EP buffer. Blank and buffer effects were subtracted for each sensorgram using double referencing.

[14] = molecular target: T7, human soluble IL-4R (human, UniProt P24394 26-231, limits assumed); assay: as above
T7 construct: soluble; also called human sIL-4R
T7 sequence (P24394 26-231 limits assumed): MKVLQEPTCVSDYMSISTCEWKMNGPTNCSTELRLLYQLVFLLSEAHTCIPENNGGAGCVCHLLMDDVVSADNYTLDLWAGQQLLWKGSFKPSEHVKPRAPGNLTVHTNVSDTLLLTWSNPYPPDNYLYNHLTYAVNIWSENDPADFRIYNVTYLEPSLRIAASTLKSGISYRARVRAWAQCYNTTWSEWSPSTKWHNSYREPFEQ
Experimental: as §2, §3

[15] = molecular target: T8, human IL-2Rβ (human, UniProt P14784 27-239); assay: as above
T8 construct: Bought
T8 sequence (looked up): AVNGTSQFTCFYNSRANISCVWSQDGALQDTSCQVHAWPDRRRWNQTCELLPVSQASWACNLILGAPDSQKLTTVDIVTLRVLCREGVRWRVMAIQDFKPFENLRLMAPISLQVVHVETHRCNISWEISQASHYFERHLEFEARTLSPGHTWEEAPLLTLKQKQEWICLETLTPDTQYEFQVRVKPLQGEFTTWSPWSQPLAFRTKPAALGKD
Experimental: as §2, §3

T1 sequence (Q9HBE5 20-538 limits assumed): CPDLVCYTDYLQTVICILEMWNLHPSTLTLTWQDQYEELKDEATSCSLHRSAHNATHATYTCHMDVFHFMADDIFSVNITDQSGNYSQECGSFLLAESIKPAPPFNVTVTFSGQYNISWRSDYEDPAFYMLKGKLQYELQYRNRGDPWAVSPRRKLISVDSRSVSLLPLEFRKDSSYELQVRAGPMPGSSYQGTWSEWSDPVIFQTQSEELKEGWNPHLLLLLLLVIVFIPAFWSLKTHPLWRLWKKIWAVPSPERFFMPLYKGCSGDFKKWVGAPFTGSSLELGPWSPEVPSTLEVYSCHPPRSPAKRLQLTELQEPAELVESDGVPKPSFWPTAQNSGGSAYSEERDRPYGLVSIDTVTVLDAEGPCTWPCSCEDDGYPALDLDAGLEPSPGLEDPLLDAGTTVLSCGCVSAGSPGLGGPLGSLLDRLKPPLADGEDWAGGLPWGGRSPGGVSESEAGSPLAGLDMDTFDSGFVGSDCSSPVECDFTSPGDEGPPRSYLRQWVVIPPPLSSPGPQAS

Human IL-21R-BaF3 Proliferation IC50 [1]: 0.77 nM
Human IL-21R-TF1 Proliferation IC50 [1]: 3.84 nM
Murine IL-21R-BaF3 Proliferation IC50 [2]: 0.07 nM
EC50 (read off the curve) [3]: ~0.8 nM
A450 at 13 nM Ab in cell ELISA [4]: 0.108 A450
A450 at 13 nM Ab in cell ELISA [5]: 1.35 A450
A450 at 13 nM Ab in cell ELISA [6]: 1.11 A450
A450 at 13 nM Ab in cell ELISA [7]: 1.3 A450
B1: AbG (antibody, human IgG1, V domains shown)
VH: QVQLQESGPGLVKPSETLSLTCAVSGYSISSGYYWGWIRQPPGKGLEWIGSISHTGNTYYNPPLKSRVTISVDTSKNQFSLKLSSVTAADTAVYYCARGGGISRPEYWGQGTLVTVSS
VL: SSELTQDPAVSVALGQTVRITCQGDSLRTYYASWYQQKPGQAPVLVIYGKHKRPSGIPDRFSGSSSGNTASLTITGAQAEDEADYYCVTRSVKGNPHVLFGGGTQLTVL
notes: Full-length human IgG1 / human lambda, transient, conditioned medium; Framework limits derived; also called VHP/VL18

Neutralization of T cell Proliferation IC50 (nM), murine primary CD8+ T cells [8]: 1.79 nM
Human IL-21R-BaF3 Proliferation IC50 [1]: 0.73 nM
Human IL-21R-TF1 Proliferation IC50 [1]: 3.13 nM
Murine IL-21R-BaF3 Proliferation IC50 [2]: 0.184 nM
A450 at 13 nM Ab in cell ELISA [4]: 0.104 A450
A450 at 13 nM Ab in cell ELISA [5]: 1.29 A450
A450 at 13 nM Ab in cell ELISA [6]: 0.927 A450
A450 at 13 nM Ab in cell ELISA [7]: 1.31 A450
Neutralization of B cell proliferation IC50 [9]: 0.13 nM
IC50 (nM) experiment 1, rat T cell proliferation [10]: 173 nM
IC50 (nM) experiment 2, rat T cell proliferation [10]: 105 nM
Neutralization of T cell Proliferation IC50 (nM), human primary CD4+ T cells [11]: 0.03 nM
EC50 (read off the curve) [12]: ~0.8 nM
binding result [13]: no binding (tested: 50 nM)
binding result [14]: no binding (tested: 50 nM)
binding result [15]: no binding (tested: 50 nM)
B2: AbU (antibody, human IgG1, V domains shown)
VH: B1 VH
VL: B1 VL with V88T, V92N
notes: Human IgG1 triple-mutant (L234A, L235A, G237A); Framework limits derived; also called VHP/VL25; VHPTM/VL25
